Measurements from PMC3486911 (PLoS Pathogens, 2012).
Several values for one entry are separate records, joined by “and”; a condition that tells them apart may be missing. Equal values may be shown once. Read-outs that look alike come from different tables or passages of the source.

Columns and labels:
Assay in all cases: SPR
[1] = target: V1 fHbp Arg195-Ala (Neisseria meningitidis)
[2] = target: V1 fHbp Ile196-Ala (Neisseria meningitidis)
[3] = target: V1 fHbp (V1.p1), wild type (Neisseria meningitidis) (UniProt Q9JXV4)
[4] = target: V1 fHbp His203-Ala (Neisseria meningitidis)
[5] = target: V1 fHbp Gln193-Ala (Neisseria meningitidis)
[6] = target: V1 fHbp Phe194-Ala (Neisseria meningitidis)
[7] = target: V1 fHbp Lys191-Ala (Neisseria meningitidis)
[8] = target: V3 fHbp Ile96 mutant (to Ala) (Neisseria meningitidis)
[9] = target: V3 fHbp Gln134 mutant (to Ala) (Neisseria meningitidis) (UniProt E6MV22)
[10] = target: V3 fHbp Asp43 mutant (to Ala) (Neisseria meningitidis)
[11] = target: V3 fHbp Val114 mutant (to Ala) (Neisseria meningitidis)
[12] = target: V3 fHbp Asn123 mutant (to Ala) (Neisseria meningitidis)
[13] = target: V3 fHbp Ile122 mutant (to Ala) (Neisseria meningitidis)
[14] = target: V1 fHbp (V1.p1), wild type (Neisseria meningitidis) (UniProt Q9JXV4); remark: listed apart in the source
[15] = target: V3 fHbp His190 mutant (to Ala) (Neisseria meningitidis)
[16] = target: V3 fHbp Thr128 mutant (to Ala) (Neisseria meningitidis)
[17] = target: V3 fHbp Asn48 mutant (to Ala) (Neisseria meningitidis)
[18] = target: V3 fHbp Ser44 mutant (to Ala) (Neisseria meningitidis)
[19] = target: V3 fHbp Asp126 mutant (to Ala) (Neisseria meningitidis)
[20] = target: V3 fHbp Val91 mutant (to Ala) (Neisseria meningitidis)
[21] = target: V3 fHbp Lys127 mutant (to Ala) (Neisseria meningitidis)
[22] = target: V3 fHbp Pro46 mutant (to Ala) (Neisseria meningitidis)
[23] = target: V3 fHbp Gln87 mutant (to Ala) (Neisseria meningitidis) (UniProt E6MV22)
[24] = target: V3 fHbp (V3.p28), wild type (Neisseria meningitidis) (UniProt E6MV22)
[25] = target: V3 fHbp Ala99Glu (Neisseria meningitidis)
[26] = target: V3 fHbp Pro125 mutant (to Ala) (Neisseria meningitidis)
[27] = target: V3 fHbp Leu98 mutant (to Ala) (Neisseria meningitidis)
[28] = target: V3 fHbp Asp92 mutant (to Ala) (Neisseria meningitidis)
[29] = target: V1 fHbp (V1.p1), wild type (Neisseria meningitidis) (UniProt Q9JXV4); remark: listed apart in the source
[30] = target: V3 fHbp Asn48 mutant (to Ala) (Neisseria meningitidis); remark: listed apart in the source
[31] = target: V3 fHbp Asp126 mutant (to Ala) (Neisseria meningitidis); remark: listed apart in the source
[32] = target: V3 fHbp Ile89 mutant (to Ala) (Neisseria meningitidis) (UniProt E6MV22)

## human factor H CCP 6 and 7 (fH67) (domain or fragment)
[1]
  Kd: 218 nM
[2]
  Kd: 1.5 nM
[3]
  Kd: 2.8 nM and 2.35 nM and 2.45 nM
[4]
  Kd: 1.7 nM
[5]
  Kd: 4.75 nM
[6]
  Kd: 6.15 nM
[7]
  Kd: 4.15 nM
[8]
  Kd: 14.5 nM
[9]
  Kd: 2.65 nM
[10]
  Kd: 3.2 nM
[11]
  Kd: 3.25 nM
[12]
  Kd: 8 nM
[13]
  Kd: 10.2 nM
[14]
  Kd: 2.05 nM
[15]
  Kd: 3.35 nM
[16]
  Kd: 4.2 nM
[17]
  Kd: 3.65 nM
[18]
  Kd: 9.9 nM
[19]
  Kd: 6.4 nM
[20]
  Kd: 6.05 nM
[21]
  Kd: 2.95 nM
[22]
  Kd: 0.028 nM
[23]
  Kd: 0.715 nM
[24]
  Kd: 2.35 nM
[25]
  Kd: 74.5 nM
[26]
  Kd: 3.3 nM
[27]
  Kd: 87 nM
[28]
  Kd: 4.75 nM
[29]
  Kd: 2 nM and 2.1 nM
[30]
  Kd: 3.6 nM and 3.7 nM
[31]
  Kd: 6.3 nM and 6.5 nM
[32]
  Kd: 38 nM
